Laboratory results as given in a protein production outcome set (Wang et al. 2014).

experiment: label from the status in PepcDB records

Sequence | protein production
MEEEEARQVVIDNDLKKKIKETVKKILKRSSLLEITEIKAREEASSELNLDLSRDPYKIIVREAVDSFIEKAIMTIDTEMGKLHTQIVEDVDGEVTENATKTTTKKKKKKKAKKKVEEEESSPA | failed
MEEGKKMKRIIGMIVSLALLAGLLAGCSTSATGSNINTPAAQAEKTPGAGGSGAEEAAWPRTIVDATGKEITLTEQPQRIAILHSLYLEYFLALGTPPIASAGASTGDAMKALGEWETLKPYAGTAKIIDLGSARDLNLEAILGANPDVIVTFKGQGNLDKIYEQLEQIAPVILVDFSAPWQEQILACAEIVNKEADAQKLIKEIEDSVQSAKEKLSRHQDKTIAIFRTDGGKAFVTRGNKDYYDTFGIAKPEGYPDDYETLSLEAVAEMNPDYIIFQDFITTSQAFVKTQEASSVWQAMEAVKKGQVVYFDDSLNTFGPLATKLTAEKLIQIISD | failed
MEEKRLVIVGTAHVSKRSVEEVAEVIEREKPDAVAVELCPRRYHALVHGQREEISVADVIRKGNVFMLLFQLILAYFQRKVGEETGVKPGSEMLAAIEKAREAGADVLLIDRDIGLTFTRFWQKLTFVEKIKLIFHLVRSTFSGDEIEVDEMLEEDVLDMLVKEFRKISPNAAKVLIDERDVYMAANLLNALSRYNRIVAVVGAGHRKGIEEALLKLKENPV | failed
MEEKSKYLSLVGAGALIGSISTVALLKLLSRSSLKQLNENPETNFLAGNGIESETRPDTVANGQDLLKDEIVSEHLTRNIQFFGLESQHKVTGSYVVVIGLGGVGSHAASMLLRSGVGKLLLVDFDQVSLSSLNRHAVATRADVGIPKAMCLKKHFSSIFPECHIEAKVMLYDSSSEEEILSGKPDFVLDCIDNIDTKVGLLAACVKRGLKVLSATGAGARADPTRIRVADIRESTIDPLSRSVRHRLRRKHGIEGGIPVVFSLEKPKAKLLPFEGTNGEDENPLDYQVVPGFRVRIIPVLGTIPAIFGQIMASYVITQLAGVQVQMEPIVNLDLDHYRLLHQRLIEHEETVYGTSAEVEVDVEEVMYIVKELWHGRSARDETAKDVGRGMWRAMNELMLVRWDAKKPATVSNLVLLKFKEADEHETKTLEEVKESETEFFERVSCVLKKAELDFYG | failed
MEELDEKLANRVQVSKRAVAKIVQVIDRLMQRNEKITHVLKGDSLASAGSGSGAGAGGEEEQQQASGDAETTTSSAGVHALEETLKQTHIEIMSENHKLQNLNTSLHEKFHTMSLKMKEYQDAHTAKETENAELKNQIDELQYDLEKIHCRNDKLENHLAEAIEKLKAYHQIYGDPNKSTNSAKTPTTTGSGGATTSVNSQLLEELQKELEEYRELAN | failed
MEEMGSRSDTIMVASLNRETKEIKLVSVYRDTLLQLSDGTYNKANAAYAYGGEEEAVAMLNKNLDLNIEHYVSVDFSVLVHVIDALGGIDINVEEAENGMDIIPYLNNYVVEVIKNTGVDSAPFTQLGQQHLNGVQATAYARLRYGGGDDYKRTERQRQVLEQIAIKAQKAKLSTINKIIDKVFDNVKTNFTLTETIAYAKDVKSYIFGETQGFPYESTTADLDVGNSVVATDLASDVTKLHQFLFGENDYTPSSTVQSISEDISNSTYDTGESYDTEYDEYGYSQDYSGYDSGYTDNSYGTGGYQDSGYGDGSSGNGYTEDTGGDYVPPSDGGGTDSGSSDSNSQIPDTGTGDSGDTGGESLELEHHHHHH | not failed
MEEVYHDEPEKFNHILHLIRDYFNHRDDRARITACMGELMRDHLNLLVRFFDFFPAEASEGLAQLQTIAATSVSPDSTIDDAVSYINTVKEAFHDEPAKYYEFFQLFYDIRYRLIDVAGGITRVEELLKAHKNLLVRLNAFLPPEAQRILHLKIEQRAASDINKRKRVASFIGKLKERFQGDDRHVYESFLEILTMYQEGNKSVNDLYQEVGFLVGTLWLDYTFS | failed
MEEWSASEACLFEEALEKYGKDFNDIRQDFLPWKSLTSIIEYYYMWKTTDRYVQQKR | not failed
MEFDKSVQNYLIGANFSSGLVLDISKKENYILDRISILEQLSKDKKIIHLGCCDHIPLIQNKIENNTWLHSRLCSNSKRCIGVDINKDGIKYLKNNLGYEDVLCGDIIEEELNAIKEEHWDYMILGEILEHIDNPCLFLSDVQKKYHGIVDRLVITVPNALSYQNMKYTFLNKEYINTDHRYWFTPYTLGKIVTLAGMEVEKFFFCVPFPRDNGVFYALNPKSILFDFICKRYPPTRETLLMVAVV | failed
MEFHLPSVPMRKILSYLDAFSLLQIAQVNKRWNTFASTDVLWRKFCLKRWFFYEVVTLELLGTESWKQFFVCRTRQERAKSRAKPEDFTYKEIPVEIGAPRNAYYISGCGLTRDGQGKSVICVVTSMNTISTWDLHKGAVTWVSPVQPSYIKILATLPEMHIAVTVDIESTIKLWDCHNREALATNNMLSSCQSLKAVFTKDGPVVLAGDTSGNLLIFRIPDLHLISRVHVFQYGINELYCSPQKKWVFLSKKHSQILPKVFFMSSLLRTSEFSAPASTILSFPLCQRAFWTPRREDRITLMSIKGSKKITTFVTFDIKLEKEEIGNKIRVKEYAIANFSLKKFEDTLEWMGVSDKNVIVCSTGSSLLIYSITGLHLQTFPYGPGEILRLSVDPLHVIVTFIDGSLELFAWEERSPLLRRCYRLYNKRHMLHRRFVNKTLCDDVSIVRVMTNVPSSSFLMVYTLNNGS | failed
MEFNDLGITIKELRIKKNISQSELCHGICSQSQISKIEKGMIYPSSILLYQLSERLGIDPNNIFALTQNKRLKYVENVKYVIKDCLKQKQYKELYEIVKKEKNLNNFQTKDEKQFLMWHEAIAIFMVDKSIKTALDFLNNALKLTLTNSDFLSEREIDIMQTMAIFYAENKEYEKSINIFKRCLTNFNKLDFPRDKEIKLKLMLNLAKCFDFTYQHEEAIKYIDKGIKLAINLNTLYLLGELFYLKGQCLLKMKQHNVEDVIYNWKKALFIFELTEKEYYTKMLPDELIELQNKKHS | failed
MEGEAQKKFTTGDKAYVKKDSMMYEIVVGCNRSCPCRDSQCIAQIQQVAEPTVANGTARYFVHYVSWNESFDEWVEELDLYPFNAESQQLMNDLRQQALTEKDTENSVPEQENQLKRKRPSKETEKREEPLDAYSLFNIPGSLKRQLMDEWETVTREKMTLTLPREYTVRRILEIWATTKSKQSDSNKDDSTVQEFVNGIFELFNISLGKMLLYRYERPQHNQIFHENESPPEPIDVYGAEHLLRLFVKLPGLVRHLQVPEEAVLNIAQKSYEMLRFLQKNSRKFFSPQYEPLKSQDDSVQGENEDDMDEE | not failed
MEGFLMKKTWIALSLLIAFSASSLLPMQAKEATLPKDERYHLVNTSEKGEYELLNTYDSYTEAEKNFQRLSKKYNNLGITYGDSFLQVEQGVVAFPTNSDCSLNTDYILDETNTNGYLNGCYGGDAAFLEYDSYTNQIKFKISGVVAWSDATALTVYPIEKLPNVSSFIVKDGILYHQLKSSATSPSFSSVLPLSKAPSYLKESTTYYSYDTHYFYEAYDQLIKDERLATHQHAINAKKPYYNYYQYLDHRSTTDYTPKQIQSYFKQNLGFQANITNFYDTDNYVHDILTQSLLYGNSEAFFQYQNQFGANALMMLSLSLNESALGKSYIAYNKNNLFGHAAFDSSAEESASRYQSVAASVYSHALHYLSESYLNPEAFQYYGGYFGNKAGGMNVAYASDPYWGEKSASYFMRMDRDMGYQDENNYQLGIAQGQAVKVYASASKKAKLLYTTEEGYDASFILQKKIKNKSGTWYQVQSDIALTKSKESIQDGSYPFATSIGYVKADDIDVITGAEKAANKSYLPITFDAVDGSFYPNTSSITLFVEKGQMPVILDPIKENALFDGWDITLEPATNALTYKATYKHIKNIEVIEKPQTKYNLGDTLNLKHGKIRVTFEDGSSKEVALNNDMVSGFHNDQSGKQRLTITYGGSTTYYDIEMDNQQEERINDVKKQAAHVIKTYMGKVGLNSEALDELIRLRNQLGQFDMQVLPRDQIRVIDRILQENLEPRYSVIIKDDTYDMQVSGLSIALQGESSFLNNIMPKTLRLDVNNDIPKEEKQFVEKVAKANGMNVASYLAIEGTDDFSTLKLQSQLVYSIQKPKKDIDHRIYSVYYISGKDIYQLPTTQSKNRIVFPNDKLGHYAVVWKHADSITHSKDFQEVNTIKQNGKDYIKVYILLPCIIILLTLALLALILYMRKRKIKPFKA | failed
MEGFPVRVRVDVRFRDLDPLGHVNNAVFLSYMELARIRYFQRISPDWLEEGHFVVARMEVDYLRPILLGDEVFVGVRTVGLGRSSLRMEHLVTANGESAAKGLGVLVWLEGGRPAPLPEAIRERIRALEGRPL | not failed
MEGIQHPIPRTVEEVFSDFRGRRAGLIKALSTDVQKFYHQCDPEKENLCLYGLPNETWEVNLPVEEVPPELPEPALGINFARDGMQEKDWISLVAVHSDSWLISVAFYFGARFGFGKNERKRLFQMINDLPTIFEVVTGNAKQSKDQSANHNSSRSKSSGGKPRHSESHTKASKMSPPPRKEDESGDEDEDDEQGAVCGACGDNYGGDEFWICCDACEKWFHGKCVKITPAKAEHIKHYKCPSCTTSKKMKA | failed
MEGISIYTSDNYTEEMGSGDYDSMKEPCFREENANFNKIFLPTIYSIIFLTGIVGNGLVILVMGYQKKLRSMTDKYRLHLSVADLLFVITLPFWAVDAVANWYFGNFLCKAVHVIYTVNLYSSVLILAFISLDRYLAIVHATNSQRPRKLLAEKVVYVGVWIPALLLTIPDFIFANVSEADDRYICDRFYPNDLWVVVFQFQHIMVGLILPGIVILSCYCIIISKLSHSKGHQKRKALKTTVILILAFFACWLPYYIGISIDSFILLEIIKQGCEFENTVHKWISITEALAFFHCCLNPILYAFLGAKFKTSAQHALTSVSRGSSLKILSKGKRGGHSSVSTESESSSFHSS | not failed
MEGLEAYDYHLPPEQIAQEGVEPRDMARLMVVYREGPFRVAHKRVRDLPEFLRPGDVLVFNESKVIPARLLARKPTGGKVEILLVRERSPGLWEALLGPARKAPPGTRLLLLSPKDLAPVPGLQAEVVAVEEDGVRLLRFQGDLVAHLEEVGEVPLPPYIKAKIPMERYQTVYARRPGSVAAPTAGLHFTPELLERLREMGVELRFLTLHVGPGTFRPVKGDPEKHEMHAEPYAIPEEVAEAVNRAKAEGRRVVAVGTTVVRALESAYREGVGVVAGEGETRLFIRPPYTFKVVDALFTNFHLPRSTLLMLVAAFLGRERTLEAYRLAVAEGYRFYSLGDAMLIL | not failed
MEGLIPFLYKAIVMYKREGSFSSVLLSDHHSPSNAGYYMRLPGDSSSRFRTSDLRRFGTDRFGMLETTPSSSPSRVSTRNITKRT | failed
MEGLQRSTISFRRQGSSGIVFDDRLIAELNKSGNNEQKDESQRDEQPKPMSESSEQVKPIDEKDKLRPIKTGGGAPGGIERSRSNGGGAQRHHRTTGRVSPAVDPPSPRISSCGCCSAFGKNPPGKKVNPRKRPPKRRSR | failed
MEGSQQTITSKQLVRMLKDASRGSKGKGSGEMKFCFLIGAGASISSGIPSGAKLAWDWLQQIKEDCDGEDFEDWKIEIKMPDQHIEERVGEFYPEIYEKRFGHAPETGYDYIRGLMEGREPSLGYLILANIMVREKHNVVITTNFDNLLEDAIRTYTKEKPFIAGHEALADYVPKRSDRPIILKLHRDLFLQPFSDQLNTDILQAAWESILGKFLSDYHLIVLGYGGNDGSLMNYLLKLKNRKPIYWCVRNTDKATSKSLWNTLSPKAKRLLKNDGYLVPIDDFDRFMYDCYAALGYKFLEGIEKIEKPKSIHEILKPNYARIESIQTQLRQLSQTEEELSKESFQSIKSFLPDSWMWILKANQEKDIDKKDKIYREGIAKYPQDANLLGDYADFLCDICHD | not failed
MEIEFMTNVAVRRPNLNDVDELYLFFRIVITNTYKNEGLSQSLDDIENEINSKKQYLKSDFDSNGEGRYFLLAIDTSNDKIIGTIEIGPASTLINSCTGGVLKNLYEIGTVFILPEYQRKGIGSLLLHTMFLTLLSRGITEYCLDSGYKNAQSIWTKKFGKPSYVLKDYWGESSDHMIWKKSLHDTPIIFEL | failed
